Source: patent publication US10400249B2, “HPPD variants and methods of use” (priority 2014, dated 2019)

Test system: Pseudomonas fluorescens HPPD protein
Experiment: HGD assay: HPPD activity coupled to HGA dioxygenase, pI50 and type of inhibition (time-course)
Type: biochemical
Details: for tolerance (pI50) Cmpd. 1: inhibitor Cmpd. 1; for tolerance (pI50) Cmpd. 1 / tolerance (pI50) Cmpd. 2 / tolerance (pI50) Cmpd. 3 / tolerance (pI50) Cmpd. 4 / tolerance (pI50) Cmpd. 5 / tolerance (pI50) DKN / tolerance (pI50) MST / tolerance (pI50) TBT: HGD assay; for tolerance (pI50) Cmpd. 2: inhibitor Cmpd. 2; for tolerance (pI50) Cmpd. 3: inhibitor Cmpd. 3; for tolerance (pI50) Cmpd. 4: inhibitor Cmpd. 4; for tolerance (pI50) Cmpd. 5: inhibitor Cmpd. 5; for tolerance (pI50) DKN: inhibitor diketonitrile (DKN); for tolerance (pI50) MST: inhibitor mesotrione (MST); for tolerance (pI50) TBT: inhibitor tembotrione (TBT)
Outline: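 Purified Pseudomonas fluorescens HPPD, room temperature. OD assay: 50 mM Tris-HCl pH 7.8, 0.5 mM HPP, 10 mM ascorbate, catalase, 24 min, remaining HPP derivatised with DNP, read at 405 nm, inhibitor 5.0×10^−6 to 5.0×10^−4 M. HGD assay: 200 mM Tris-HCl pH 7.6, 600 μM HPP, 20 μM FeSO4, coupled HGA dioxygenase, initial rates at 318 nm, inhibitor ≤100 μM, time-course gives inhibition type; pI50 from 4-parameter fits.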

| Molecule | mechanism of inhibition by diketonitrile (DKN), time-course of inhibition | mechanism of inhibition by mesotrione (MST), time-course of inhibition | mechanism of inhibition by tembotrione (TBT), time-course of inhibition | tolerance (pI50) Cmpd. 1 | tolerance (pI50) Cmpd. 2 | tolerance (pI50) Cmpd. 3 | tolerance (pI50) Cmpd. 4 | tolerance (pI50) Cmpd. 5 | tolerance (pI50) DKN | tolerance (pI50) MST | tolerance (pI50) TBT |
| --- | --- | --- | --- | --- | --- | --- | --- | --- | --- | --- | --- |
| FLP136: PfHPPD variant P215L, E335P, G336F (protein, HPPD variant - FLP136, PfHPPD variant P215L, E335P, G336F) MADLYENPMGLMGFEFIEFASPTPGTLEPIFEIMGFTKVATHRSKNVHLYRQGEINLILNNEPNSIASYFAAEHGPSVCGMAFRVKDSQKAYNRALELGAQPIHIDTGPMELNLPAIKGIGGAPLYLIDRFGEGSSIYDIDFVYLEGVERNPVGAGLKVIDHLTHNVYRGRMVYWANFYEKLFNFREARYFDIKGEYTGLTSKAMSAPDGMIRILLNEESSKGAGQIEEFLMQFNGEGIQHVAFLTDDLVKTWDALKKIGMRFMTAPPDTYYEMLEGRLPDHGEPVDQLQARGILLDGSSVEGDKRLLLQIFSETLMGPVFFEFIQRKGDDGFGPFNFKALFESIERDQVRRGVLTAD | fully reversible inhibitors | fully reversible inhibitors | fully reversible inhibitors | 5.6 | 5.9 | 5.6 | 6.0 | 5.6 | 4.0 | 4.5 | 5.3 |
| FLP202: PfHPPD variant P215L, E335P, G336F, A340E (protein, HPPD variant - FLP202, PfHPPD variant P215L, E335P, G336F, A340E) MADLYENPMGLMGFEFIEFASPTPGTLEPIFEIMGFTKVATHRSKNVHLYRQGEINLILNNEPNSIASYFAAEHGPSVCGMAFRVKDSQKAYNRALELGAQPIHIDTGPMELNLPAIKGIGGAPLYLIDRFGEGSSIYDIDFVYLEGVERNPVGAGLKVIDHLTHNVYRGRMVYWANFYEKLFNFREARYFDIKGEYTGLTSKAMSAPDGMIRILLNEESSKGAGQIEEFLMQFNGEGIQHVAFLTDDLVKTWDALKKIGMRFMTAPPDTYYEMLEGRLPDHGEPVDQLQARGILLDGSSVEGDKRLLLQIFSETLMGPVFFEFIQRKGDDGFGPFNFKELFESIERDQVRRGVLTAD | fully reversible inhibitors | fully reversible inhibitors | fully reversible inhibitors | 4.1 | 4.7 | 4.3 | 5.7 | 4.3 | <4 | <4 | 4.2 |
